Measured values taken from patent US20160046707A1 (EISAI R AND D MANAGEMENT, published 2016).

T1: recombinant human CCL16 (human, UniProt O15467 24-120)
T1 construct: also called HCC-4
T1 sequence (looked up): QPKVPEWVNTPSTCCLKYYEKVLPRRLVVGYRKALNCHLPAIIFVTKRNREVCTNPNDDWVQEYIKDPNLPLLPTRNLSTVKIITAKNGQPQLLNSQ

T2: recombinant human CX3CL1 (Extracellular Domain) (human, UniProt P78423 25-341)
T2 construct: extracellular domain; also called FKN
T2 sequence (looked up): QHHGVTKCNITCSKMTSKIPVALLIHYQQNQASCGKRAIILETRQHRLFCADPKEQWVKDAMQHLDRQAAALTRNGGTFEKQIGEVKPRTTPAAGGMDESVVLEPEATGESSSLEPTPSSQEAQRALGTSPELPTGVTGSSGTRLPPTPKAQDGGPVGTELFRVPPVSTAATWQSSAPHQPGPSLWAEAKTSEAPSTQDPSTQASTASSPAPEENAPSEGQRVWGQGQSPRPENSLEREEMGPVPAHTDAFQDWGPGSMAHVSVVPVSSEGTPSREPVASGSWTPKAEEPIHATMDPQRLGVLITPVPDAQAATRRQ

T3: cynomolgus CCL20-secreted alkaline phosphatase (SEAP) fusion (cynomolgus monkey)
T3 construct: also called cCCL20; cynomolgus CCL20-SEAP; not shown: the SEAP reporter (cDNA from Clontech pSEAP-Enhancer) and its junction to CCL20
T3 chain: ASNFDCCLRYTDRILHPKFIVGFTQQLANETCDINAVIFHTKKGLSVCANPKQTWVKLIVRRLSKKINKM

T4: rhesus CCL20-secreted alkaline phosphatase (SEAP) fusion (rhesus monkey)
T4 construct: also called rCCL20; rhesus CCL20-SEAP; not shown: the SEAP reporter (cDNA from Clontech pSEAP-Enhancer) and its junction to CCL20
T4 chain: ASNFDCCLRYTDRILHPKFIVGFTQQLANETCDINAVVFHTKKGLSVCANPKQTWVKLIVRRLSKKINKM


Columns and labels:
recombinant human CCL16 = target: T1, recombinant human CCL16; assay: ELISA, plate-bound chemokine (1 ug/ml), antibody 10 ug/ml, OD450
Experimental: (§1) The wells of a 96-well plate were coated with 1 μg/ml of the recombinant human chemokines in PBS (−). After overnight incubation at 4° C., the wells were blocked with 1× Block-Ace (Dainippon Sumitomo Pharma, UK-B80) for 1 hour at room temperature. After washing twice with 0.02% Tween 20/PBS (−), we added 50 μl of 10 μg/ml purified 36F7C10, chimeric 36F710, HC2/LK3, or HC2/LC3 in 0.02% Tween 20/PBS (−) to each well. The wells were incubated for 1 hour at room temperature and washed three times as described in Example 3. […] After washing five times, a TMBZ (3,3′,5,5′-tetramethylbenzidine) solution (1%, in N,N-Dimethylformamide) was added to the wells and incubated for 15-30 minutes. The reaction was stopped by adding an equal volume of a 2 M H₂SO₄ stopping solution, and the optical density was read at 450 nm by ARVO (PerkinElmer).

[1] = target: T2, recombinant human CX3CL1 (Extracellular …); assay: as above
Experimental: as §1

[2] = target: T5, human CCL20-secreted alkaline phosphatase (SEAP) fusion (human, UniProt P78556 27-96); assay: ELISA on CCL20-SEAP, Abs 450; x axis 'ug/ml' in 4-fold steps down from 10, taken as the antibody concentration as in FIG. 11C
T5 construct: also called hCCL20; human CCL20-SEAP; not shown: secreted alkaline phosphatase (SEAP), cDNA from pSEAP-Enhancer vector (Clontech)

[3] = target: rat CCL20-secreted alkaline phosphatase (SEAP) fusion (rat, UniProt P97884 27-96; P05187 23-511); assay: as above
[4] = target: T3, cynomolgus CCL20-secreted alkaline …; assay: as above
[5] = target: T4, rhesus CCL20-secreted alkaline …; assay: as above
[6] = target: T5, human CCL20-secreted alkaline …; assay: ELISA (fluorescent HRP substrate): CCL20-SEAP captured on anti-alkaline phosphatase in 5-fold dilutions from 20 nM (x axis, nM), antibody at 1 ug/ml
Experimental: (§2) To test whether the chimeric and humanized antibodies can bind to mouse, cynomolgus, or rhesus macaque CCL20 orthologs, we used ELISA assays as illustrated in FIG. 15. Recombinant secreted alkaline phosphatase (SEAP)-chemokine fusion proteins were engineered as described in Example 2, expressed and purified for all of the CCL20 orthologs tested. Nunc MaxiSorb flat-bottom black plates were coated with 1 μg/ml mouse anti-placental alkaline phosphatase antibody (Pierce, cat# MA1-19354) in 50 mM sodium bicarbonate, pH 9.4, overnight at 4° C. Plates were then blocked using 1× phosphate buffered saline with Tween-20 (PBST) with 5% bovine serum albumin (BSA) for 2 hours at room temperature. 20 nM SEAP-CCL20 fusion proteins were serially diluted 5-fold in Opti-MEM medium (Invitrogen). Chimeric and humanized (HC2/LC3 and HC2/LK3) antibodies were diluted to 1 μg/ml in 1×PBST with 5% BSA, added to the plates, and incubated for 1 hr at room temperature. The plates were then washed with 1×PBST with 5% BSA three times. […] QuantaBlu fluorescent HRP substrate (Pierce cat#15169) was added for detection of bound antibody by measuring fluorescence in a Molecular Devices M5 (Excitation 325 nm/Emission 420 nm) plate reader.
(§3) While the hamster anti-mouse CCL20 antibody 2F5-5 MAb bound mouse CCL20 with a 50% effective dose (EC₅₀) of 64 pM (data not shown), neither the chimeric nor humanized anti-human CCL20 antibodies bound detectably to mouse CCL20 or rat CCL20 under the conditions described above. By contrast, both the chimeric and humanized antibodies effectively bound to human, rhesus, and cynomolgus CCL20 (FIGS. 16A-C, 17A and B).

[7] = target: T3, cynomolgus CCL20-secreted alkaline …; assay: as above
Experimental: as §2, §3

[8] = target: T4, rhesus CCL20-secreted alkaline …; assay: as above
Experimental: as §2, §3

T5 sequence (P78556 27-96): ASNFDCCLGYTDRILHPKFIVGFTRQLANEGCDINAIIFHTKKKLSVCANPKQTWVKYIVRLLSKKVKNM
rat CCL20-secreted alkaline phosphatase (SEAP) fusion, sequence (P97884 other isoform, or with tags, fused parts or gaps): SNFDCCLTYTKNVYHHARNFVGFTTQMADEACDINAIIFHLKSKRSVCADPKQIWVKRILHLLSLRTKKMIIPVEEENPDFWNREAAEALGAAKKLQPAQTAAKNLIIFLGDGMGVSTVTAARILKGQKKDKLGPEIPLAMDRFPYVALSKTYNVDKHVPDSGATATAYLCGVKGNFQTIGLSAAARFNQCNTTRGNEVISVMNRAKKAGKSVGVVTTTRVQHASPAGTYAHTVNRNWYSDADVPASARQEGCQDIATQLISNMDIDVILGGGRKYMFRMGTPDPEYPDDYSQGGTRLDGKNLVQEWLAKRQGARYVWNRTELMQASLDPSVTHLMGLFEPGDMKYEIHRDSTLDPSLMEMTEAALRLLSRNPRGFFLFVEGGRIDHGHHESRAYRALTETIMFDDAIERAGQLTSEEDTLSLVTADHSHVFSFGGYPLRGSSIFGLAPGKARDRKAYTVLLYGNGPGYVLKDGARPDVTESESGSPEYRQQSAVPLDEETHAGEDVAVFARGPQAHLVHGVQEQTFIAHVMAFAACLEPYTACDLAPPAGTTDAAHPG

Binder	binding result (recombinant human CCL16)	binding result [1]	EC50 (read off the curve) [2] [µg/mL]	binding result [3]	EC50 (read off the curve) [4] [µg/mL]	EC50 (read off the curve) [5] [µg/mL]	EC50 [6] [nM]	EC50 [7] [nM]	EC50 [8] [nM]
mouse anti-human CCL20 monoclonal antibody 36F7C10 (antibody, V domains shown, Mouse hybridoma antibody; also called MouseMAb; parental mouse clone 36F7C10) VH: QVQLQQPGAELVKPGASVKMSCKASGYTFTNYWMHWVKQRPGQGLEWIGVIDPSDSYTTYNQKFKGKATLTVDTSSSTAYMQLSSLTSEDSAVYYCTRGNYGVDYAMDYWGQGTSVTVSS VL: DIQMTQSPASLSASVGETVTITCGASENIYGALNWYQRKQGKSPQLLIYGATNLADGMSSRFSGSGSGRQYSLKISSLHPDDVATYYCQNVLITPYTFGGGTKLEIK	no binding (tested: 10 ug/ml)	no binding (tested: 10 ug/ml)	~0.009	no binding (tested: 10 ug/ml)	~0.009	~0.01			
chimeric 36F7C10 antibody (36F7C10-hFc) (antibody, V domains shown, also called chimeric 36F710; Chimeric MAb) VH: QVQLQQPGAELVKPGASVKMSCKASGYTFTNYWMHWVKQRPGQGLEWIGVIDPSDSYTTYNQKFKGKATLTVDTSSSTAYMQLSSLTSEDSAVYYCTRGNYGVDYAMDYWGQGTSVTVSS VL: DIQMTQSPASLSASVGETVTITCGASENIYGALNWYQRKQGKSPQLLIYGATNLADGMSSRFSGSGSGRQYSLKISSLHPDDVATYYCQNVLITPYTFGGGTKLEIK		no binding (tested: 10 ug/ml)	~0.03	no binding (tested: 10 ug/ml)	~0.03	~0.03	0.0336	0.101	0.0498
humanized anti-human CCL20 antibody 36LK3/36HC2 (antibody, human IgG1, kappa, V domains shown, expressed in HEK293 cells; also called HC2/LK3; HC2LK3) VH: QVQLVQSGAEVKKPGASVKVSCKASGYTFTNYWMHWVRQAPGQGLEWMGVIDPSDSYTTYAQKFQGRVTMTVDTSTSTVYMELSSLRSEDTAVYYCARGNYGVDYAMDYWGQGTLVTVSS VL: DIQMTQSPSSLSASVGDRVTITCGASENIYGALNWYQRKPGKAPKLLIYGATNLADGVPSRFSGSGSGRDYTLTISSLQPEDFATYYCQNVLITPYTFGQGTKLEIKR		no binding (tested: 10 ug/ml)					0.0459	0.162	0.0629
humanized anti-human CCL20 antibody 36LC3/36HC2 (antibody, human IgG1, kappa, V domains shown, expressed in HEK293 cells; also called HC2/LC3; HC2LC3) VH: QVQLVQSGAEVKKPGASVKVSCKASGYTFTNYWMHWVRQAPGQGLEWMGVIDPSDSYTTYAQKFQGRVTMTVDTSTSTVYMELSSLRSEDTAVYYCARGNYGVDYAMDYWGQGTLVTVSS VL: DIQMTQSPSSLSASVGDRVTITCRASENIYGALNWYQQKPGKAPKLLIYGATNLADGVPSRFSGSGSGRQYSLTISSLQPEDFATYYCQNVLITPYTFGGGTKLEIKR	no binding (tested: 10 ug/ml)	no binding (tested: 10 ug/ml)							
